Experimental data from US20210032365A1 (Chugai, published 2021).
Changes are numbered by the printed parent chain.

T1: human C1s (human, UniProt P09871 16-688)
T1 construct: Analyte in the Biacore assays; also called hC1s; serum-derived human C1s (CompTech)
T1 sequence: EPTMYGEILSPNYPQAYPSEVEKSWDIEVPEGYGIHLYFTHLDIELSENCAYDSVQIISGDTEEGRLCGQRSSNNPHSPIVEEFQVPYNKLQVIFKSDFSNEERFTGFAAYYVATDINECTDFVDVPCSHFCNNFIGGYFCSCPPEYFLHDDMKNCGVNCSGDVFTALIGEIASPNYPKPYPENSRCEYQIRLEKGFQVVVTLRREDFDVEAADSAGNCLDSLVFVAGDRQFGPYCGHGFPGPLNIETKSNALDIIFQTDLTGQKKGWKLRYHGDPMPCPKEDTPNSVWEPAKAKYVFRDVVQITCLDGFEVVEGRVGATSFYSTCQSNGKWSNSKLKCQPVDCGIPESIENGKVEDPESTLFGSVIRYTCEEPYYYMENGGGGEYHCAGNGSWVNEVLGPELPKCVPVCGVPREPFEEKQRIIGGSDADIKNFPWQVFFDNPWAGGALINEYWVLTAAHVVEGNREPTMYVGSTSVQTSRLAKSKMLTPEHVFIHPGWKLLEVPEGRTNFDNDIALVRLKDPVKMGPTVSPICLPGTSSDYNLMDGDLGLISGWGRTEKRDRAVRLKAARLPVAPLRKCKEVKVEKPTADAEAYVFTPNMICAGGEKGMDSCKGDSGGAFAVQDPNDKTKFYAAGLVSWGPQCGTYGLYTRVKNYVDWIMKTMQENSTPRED

B1: C1_IPN92H0156-SG4GK/IPN93L0024-SK1 (antibody, human IgG4 S228P, kappa, name in Kabat numbering, V domains shown)
VH: EVMLVESGGGLVKPGGSLRLSCAASGFTFSNYAMSWVRQAPGKGLEWVATISSGGSHTKYLDSVKGRFTISRDNSKDTLYLQMNSLRAEDTALYYCARLFTGHAMDYWGQGTLVTVSS
VL: QIVLTQSPATLSLSPGERATLSCTASSSVSSSYLHWYQQKPGKAPKLWIYSTSNLASGVPSRFSGSGSGTDYTLTISSLQPEDFATYYCHQYYRLHPITFGQGTKLEIKR
notes: Substitutions from IPN009VH2, Kabat numbering; also called IPN92H0156/IPN93L0024
B2: C1_IPN92H0232-SG4GK/IPN93L0024-SK1 (antibody, human IgG4 S228P, kappa, name in Kabat numbering, V domains shown)
VH: B1 VH with K59Y, G102R
VL: B1 VL
notes: Substitutions from IPN009VH2, Kabat numbering; also called IPN92H0232/IPN93L0024
B3: C1_IPN92H0159-SG4GK/IPN93L0024-SK1 (antibody, human IgG4 S228P, kappa, name in Kabat numbering, V domains shown)
VH: B1 VH with K59Y, Y60D
VL: B1 VL
notes: Substitutions from IPN009VH2, Kabat numbering; also called IPN92H0159/IPN93L0024
B4: C1_IPN92H0281-SG4GK/IPN93L0091-SK1 (antibody, human IgG4 S228P, kappa, name in Kabat numbering, V domains shown)
VH: B1 VH with H57K, K59Y, Y60E, K65D, G66E, G102K
VL: B1 VL with Y33R
notes: Substitutions from IPN009VH2 / IPN009VK3, Kabat numbering; also called IPN92H0281/IPN93L0091
B5: C1_IPN92H0231-SG4GK/IPN93L0024-SK1 (antibody, human IgG4 S228P, kappa, name in Kabat numbering, V domains shown)
VH: B1 VH with K59Y, G102K
VL: B1 VL
notes: Substitutions from IPN009VH2, Kabat numbering; also called IPN92H0231/IPN93L0024
B6: C1_IPN92H0279-SG4GK/IPN93L0091-SK1 (antibody, human IgG4 S228P, kappa, name in Kabat numbering, V domains shown)
VH: B1 VH with K59Y, Y60E, G66E, G102K
VL: B1 VL with Y33R
notes: Substitutions from IPN009VH2 / IPN009VK3, Kabat numbering; also called IPN92H0279/IPN93L0091
B7: C1_IPN92H0193-SG4GK/IPN93L0024-SK1 (antibody, human IgG4 S228P, kappa, name in Kabat numbering, V domains shown)
VH: B1 VH with K59Y, G66D
VL: B1 VL
notes: Substitutions from IPN009VH2, Kabat numbering; also called IPN92H0193/IPN93L0024
B8: C1_IPN92H0194-SG4GK/IPN93L0024-SK1 (antibody, human IgG4 S228P, kappa, name in Kabat numbering, V domains shown)
VH: B1 VH with K59Y, G66E
VL: B1 VL
notes: Substitutions from IPN009VH2, Kabat numbering; also called IPN92H0194/IPN93L0024

Biological target: T1, human C1s
Test: SPR; KD at pH 5.8 (3 uM Ca) over KD at pH 7.4 (1.2 mM Ca)
Method: (§1) Each antibody was captured onto the sensor surface by protein A/G. Antibody capture levels were aimed at 200 resonance unit (RU). Serum-derived human C1s (CompTech) or recombinant C1s prepared in EXAMPLE 1 was injected at 50 nM, followed by dissociation. The sensor surface was regenerated in each cycle with 10 mM Glycine-HCl, pH 1.5. […] The ratio of KD 5.8+ to KD 7.4+(“KD 5+/7+”) and that of KD 5.8− to KD 7.4+(“KD 5−/7+”) were calculated. When the KD 5+/7+ or KD 5−/7+ of a variant is larger than that of the parent antibody IPN009VH2-SG4GK/IPN009VK3-SK1, that variant is considered to be “pH”- or “pH and Ca”-dependent, respectively. When binding response in 5(+) buffer and/or in 5(−) buffer of a variant is much lower than that of IPN09VH2/IPN009VK3, that variant is also considered as “pH”- and/or “pH and Ca”-dependent. Therefore, such mutations are effective to generate “pH”- and/or “pH and Ca”-dependent antibody. To further enhance “pH” and/or “pH and Ca” dependency, a combination of histidine mutations was conducted. Antibodies with combinations of histidine mutations were evaluated using Biacore by the method described above.
(§2) C1_1IPN92H0033 (SEQ ID NO: 17)-SG4GK/IPN93L0024 (SEQ ID NO: 18)-SK1 (IPN92H0033/IPN93L0024) was selected for further optimization. Histidine, Lysine, Arginine, aspartic acid, glutamic acid, and glutamine scanning was conducted for CDRs and certain positions of FRs of IPN92H0033/IPN93L0024. Variants with a mutation were generated and purified, and evaluated using Biacore by the method mentioned above. All variants were evaluated using Biacore as mentioned above. Mutations that improved “pH” and/or “pH and Ca” dependency were selected for the combination.

KD 5(-)/7(+)	Binder
4.62	B1
3.46	B2
3.57	B3
0.82	B4
4.06	B5
7.54	B6
3.47	B7
7.29	B8

Biological target: T1, human C1s
Test: SPR; KD at pH 5.8 (1.2 mM Ca) over KD at pH 7.4 (1.2 mM Ca)
Method: as §1, §2

KD 5(+)/7(+)	Binder
7	B1
5.7	B2
8.1	B3
2.4	B4
7.4	B5
29.2	B6
6.2	B7
6.5	B8

Biological target: T1, human C1s
Test: SPR (Biacore T200, 37C), Ab captured on protein A/G; pH 5.8, 3 uM Ca
Method: as §1, §2

Kd [nM]	koff [s⁻¹]	kon [M⁻¹ s⁻¹]	Binder
9.8	0.00632	645000	B1
5.19	0.0173	3.23e+06	B2
7.36	0.00401	544000	B3
3.88	0.00227	585000	B4
5.28	0.00674	1.28e+06	B5
5.17	0.00611	1.18e+06	B6
3.21	0.0685	2.14e+07	B7
6.45	0.00517	802000	B8

Biological target: T1, human C1s
Test: SPR (Biacore T200, 37C), Ab captured on protein A/G; pH 5.8, 1.2 mM Ca
Method: as §1, §2

Kd [nM]	koff [s⁻¹]	kon [M⁻¹ s⁻¹]	Binder
14.8	0.00948	641000	B1
8.49	0.00485	570000	B2
16.6	0.00699	421000	B3
11.3	0.00707	625000	B4
9.59	0.00544	568000	B5
20	0.00684	342000	B6
5.74	0.00417	727000	B7
5.72	0.00429	751000	B8
